How the values were obtained:
CasRx (Cas13d) = assay: cell_activity
Cas13m.2 = target: T1, Cas13m.2 (metagenome); assay: cell_activity; 293T, 72 h; settings: tags: NLS fusion
T1 chain: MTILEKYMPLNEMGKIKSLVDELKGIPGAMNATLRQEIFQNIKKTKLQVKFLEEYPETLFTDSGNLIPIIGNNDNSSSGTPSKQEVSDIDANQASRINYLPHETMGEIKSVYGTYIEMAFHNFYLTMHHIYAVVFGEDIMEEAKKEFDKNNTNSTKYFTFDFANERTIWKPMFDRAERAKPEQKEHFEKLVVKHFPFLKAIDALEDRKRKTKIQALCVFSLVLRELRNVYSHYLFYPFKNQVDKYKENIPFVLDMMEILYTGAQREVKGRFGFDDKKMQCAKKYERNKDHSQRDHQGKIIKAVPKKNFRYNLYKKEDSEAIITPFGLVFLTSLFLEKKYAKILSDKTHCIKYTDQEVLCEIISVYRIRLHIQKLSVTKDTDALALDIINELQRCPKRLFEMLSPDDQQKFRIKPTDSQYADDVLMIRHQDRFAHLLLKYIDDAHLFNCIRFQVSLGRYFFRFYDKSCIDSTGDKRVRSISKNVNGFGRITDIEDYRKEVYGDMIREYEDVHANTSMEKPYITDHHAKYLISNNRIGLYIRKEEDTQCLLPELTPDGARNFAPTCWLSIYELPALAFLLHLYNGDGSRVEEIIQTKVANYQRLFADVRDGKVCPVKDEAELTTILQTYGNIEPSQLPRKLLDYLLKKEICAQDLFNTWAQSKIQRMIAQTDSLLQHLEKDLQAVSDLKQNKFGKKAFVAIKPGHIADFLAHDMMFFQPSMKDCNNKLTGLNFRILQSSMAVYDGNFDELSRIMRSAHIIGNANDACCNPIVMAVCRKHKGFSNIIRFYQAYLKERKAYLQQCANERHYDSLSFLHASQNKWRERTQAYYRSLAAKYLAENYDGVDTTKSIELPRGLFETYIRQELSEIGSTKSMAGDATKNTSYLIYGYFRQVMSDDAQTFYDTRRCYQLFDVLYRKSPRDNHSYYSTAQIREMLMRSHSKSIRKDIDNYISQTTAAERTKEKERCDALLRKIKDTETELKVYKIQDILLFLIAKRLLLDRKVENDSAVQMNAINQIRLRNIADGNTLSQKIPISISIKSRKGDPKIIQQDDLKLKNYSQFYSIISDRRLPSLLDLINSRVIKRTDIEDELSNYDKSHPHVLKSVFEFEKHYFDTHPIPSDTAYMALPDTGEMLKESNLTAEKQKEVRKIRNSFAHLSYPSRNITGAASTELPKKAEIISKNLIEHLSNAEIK
Experimental: (§1) The 293T cells were transfected with the PTBP1-targeting plasmids of Cas13 m.2, Cas13 m.3, Cas13 m.5, CasRfg.2 and CasRx at 800 ng in a 24-well plate. The negative control group was transfected with the CasRx-BpiI plasmid.
(§2) The transfection method was as follows: [0276] 1) The cells were digested by trypsin (0.25% of Trypsin, EDTA, Thermo, 11058021), counted, and plated into a 24-well plates at 2×10⁵ cells according to 500 uL per well. [0277] 2) For each transfected sample, the complex was prepared according to the following steps: [0278] a. each well of the 24-well plate into which the cells were added, were added with 50 uL of serum-free Opti-MEM I (Thermo, 25200056) reduced serum medium for dilution of the aforementioned plasmid DNA, and mixed gently; [0279] b. it was gently mixed with Lipofectamine 2000 (Thermo, 11668019) before use, and then 1.8 uL of the Lipofectamine 2000 was diluted in each well, i.e., in 50 uL of the Opti-MEM I medium. It was incubated at room temperature for 5 minutes. Note: it was continued to perform step c within 25 minutes; [0280] c. after incubation for 5 minutes, the diluted DNA was combined with the diluted Lipofectamine 2000. They were gently mixed and incubated at room temperature for 20 minutes (the solution might be cloudy visually). Note: the complex was stabilized at room temperature for 6 hours.
(§3) The complex was added into the cells and mixed, and then detected with a QuantStudio™ 5 Real-Time PCR System, 96-well after 72 h.

Cas13m.3 = target: T2, Cas13m.3 (uncultured Bacteroidetes bacterium); assay: cell_activity; 293T, 72 h; settings: tags: NLS fusion
T2 chain: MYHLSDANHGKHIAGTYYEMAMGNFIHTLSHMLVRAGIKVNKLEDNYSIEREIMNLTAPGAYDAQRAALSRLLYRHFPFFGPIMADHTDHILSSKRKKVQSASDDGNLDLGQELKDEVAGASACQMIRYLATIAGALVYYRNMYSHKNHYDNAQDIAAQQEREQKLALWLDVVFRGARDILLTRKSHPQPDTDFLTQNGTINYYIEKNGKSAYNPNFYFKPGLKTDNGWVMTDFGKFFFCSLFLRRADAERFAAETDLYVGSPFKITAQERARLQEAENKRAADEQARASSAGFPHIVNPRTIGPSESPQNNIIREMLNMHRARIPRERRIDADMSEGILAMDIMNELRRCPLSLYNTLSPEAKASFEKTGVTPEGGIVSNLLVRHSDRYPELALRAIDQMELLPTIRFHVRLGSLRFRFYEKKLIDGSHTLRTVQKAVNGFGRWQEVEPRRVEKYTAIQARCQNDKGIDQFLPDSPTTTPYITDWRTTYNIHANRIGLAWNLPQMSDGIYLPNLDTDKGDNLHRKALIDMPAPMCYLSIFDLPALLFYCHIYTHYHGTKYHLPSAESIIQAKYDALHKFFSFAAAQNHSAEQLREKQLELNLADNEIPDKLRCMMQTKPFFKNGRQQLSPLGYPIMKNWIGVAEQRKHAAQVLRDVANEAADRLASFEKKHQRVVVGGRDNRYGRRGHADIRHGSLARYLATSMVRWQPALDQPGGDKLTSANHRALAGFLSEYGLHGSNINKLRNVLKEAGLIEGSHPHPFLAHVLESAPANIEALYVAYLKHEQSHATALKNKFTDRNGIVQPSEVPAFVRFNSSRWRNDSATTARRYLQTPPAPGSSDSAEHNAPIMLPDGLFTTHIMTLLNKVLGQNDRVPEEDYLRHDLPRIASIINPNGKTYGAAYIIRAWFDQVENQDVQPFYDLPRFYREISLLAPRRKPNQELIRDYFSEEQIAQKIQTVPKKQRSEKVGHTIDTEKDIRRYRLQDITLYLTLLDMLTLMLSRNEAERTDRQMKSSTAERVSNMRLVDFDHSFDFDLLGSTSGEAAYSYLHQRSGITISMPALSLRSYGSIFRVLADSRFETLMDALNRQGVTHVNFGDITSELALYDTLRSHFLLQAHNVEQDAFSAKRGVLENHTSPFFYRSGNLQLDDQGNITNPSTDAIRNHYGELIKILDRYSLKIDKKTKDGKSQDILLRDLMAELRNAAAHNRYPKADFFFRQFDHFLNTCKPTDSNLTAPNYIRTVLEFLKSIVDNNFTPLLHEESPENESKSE
Experimental: as §1, §2, §3

CasRfg.2 (Cas13d) = target: T3, CasRfg.2 (Cas13d) (metagenome); assay: cell_activity; 293T, 72 h; settings: tags: NLS fusion
T3 chain: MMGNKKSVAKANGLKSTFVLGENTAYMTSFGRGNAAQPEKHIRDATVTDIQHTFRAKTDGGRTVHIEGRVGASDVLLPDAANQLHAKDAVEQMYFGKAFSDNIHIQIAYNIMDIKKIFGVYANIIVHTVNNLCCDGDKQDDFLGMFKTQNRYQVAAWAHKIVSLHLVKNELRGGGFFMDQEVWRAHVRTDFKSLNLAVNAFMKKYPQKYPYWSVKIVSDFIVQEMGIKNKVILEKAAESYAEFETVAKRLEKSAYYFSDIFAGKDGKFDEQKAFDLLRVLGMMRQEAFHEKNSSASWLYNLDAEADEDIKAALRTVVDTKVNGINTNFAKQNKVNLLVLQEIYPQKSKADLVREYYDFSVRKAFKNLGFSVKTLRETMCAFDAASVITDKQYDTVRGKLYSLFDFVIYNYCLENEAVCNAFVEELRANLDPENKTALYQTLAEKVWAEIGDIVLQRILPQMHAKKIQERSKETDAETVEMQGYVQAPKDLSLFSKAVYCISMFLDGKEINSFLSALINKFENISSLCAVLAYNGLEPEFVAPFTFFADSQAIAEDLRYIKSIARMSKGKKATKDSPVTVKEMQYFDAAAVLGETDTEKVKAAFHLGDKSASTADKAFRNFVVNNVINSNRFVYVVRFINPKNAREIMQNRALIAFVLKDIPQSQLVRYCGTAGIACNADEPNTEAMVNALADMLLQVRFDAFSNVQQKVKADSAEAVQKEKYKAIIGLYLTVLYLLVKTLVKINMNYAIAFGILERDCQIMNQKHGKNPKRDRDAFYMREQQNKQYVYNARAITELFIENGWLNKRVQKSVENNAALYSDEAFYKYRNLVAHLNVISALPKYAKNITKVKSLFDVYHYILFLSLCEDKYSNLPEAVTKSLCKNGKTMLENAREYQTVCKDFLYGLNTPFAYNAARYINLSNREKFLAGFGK
Experimental: as §1, §2, §3

Cas13m.5 = target: T4, Cas13m.5 (Bacteroidetes bacterium); assay: cell_activity; 293T, 72 h; settings: tags: NLS fusion
T4 chain: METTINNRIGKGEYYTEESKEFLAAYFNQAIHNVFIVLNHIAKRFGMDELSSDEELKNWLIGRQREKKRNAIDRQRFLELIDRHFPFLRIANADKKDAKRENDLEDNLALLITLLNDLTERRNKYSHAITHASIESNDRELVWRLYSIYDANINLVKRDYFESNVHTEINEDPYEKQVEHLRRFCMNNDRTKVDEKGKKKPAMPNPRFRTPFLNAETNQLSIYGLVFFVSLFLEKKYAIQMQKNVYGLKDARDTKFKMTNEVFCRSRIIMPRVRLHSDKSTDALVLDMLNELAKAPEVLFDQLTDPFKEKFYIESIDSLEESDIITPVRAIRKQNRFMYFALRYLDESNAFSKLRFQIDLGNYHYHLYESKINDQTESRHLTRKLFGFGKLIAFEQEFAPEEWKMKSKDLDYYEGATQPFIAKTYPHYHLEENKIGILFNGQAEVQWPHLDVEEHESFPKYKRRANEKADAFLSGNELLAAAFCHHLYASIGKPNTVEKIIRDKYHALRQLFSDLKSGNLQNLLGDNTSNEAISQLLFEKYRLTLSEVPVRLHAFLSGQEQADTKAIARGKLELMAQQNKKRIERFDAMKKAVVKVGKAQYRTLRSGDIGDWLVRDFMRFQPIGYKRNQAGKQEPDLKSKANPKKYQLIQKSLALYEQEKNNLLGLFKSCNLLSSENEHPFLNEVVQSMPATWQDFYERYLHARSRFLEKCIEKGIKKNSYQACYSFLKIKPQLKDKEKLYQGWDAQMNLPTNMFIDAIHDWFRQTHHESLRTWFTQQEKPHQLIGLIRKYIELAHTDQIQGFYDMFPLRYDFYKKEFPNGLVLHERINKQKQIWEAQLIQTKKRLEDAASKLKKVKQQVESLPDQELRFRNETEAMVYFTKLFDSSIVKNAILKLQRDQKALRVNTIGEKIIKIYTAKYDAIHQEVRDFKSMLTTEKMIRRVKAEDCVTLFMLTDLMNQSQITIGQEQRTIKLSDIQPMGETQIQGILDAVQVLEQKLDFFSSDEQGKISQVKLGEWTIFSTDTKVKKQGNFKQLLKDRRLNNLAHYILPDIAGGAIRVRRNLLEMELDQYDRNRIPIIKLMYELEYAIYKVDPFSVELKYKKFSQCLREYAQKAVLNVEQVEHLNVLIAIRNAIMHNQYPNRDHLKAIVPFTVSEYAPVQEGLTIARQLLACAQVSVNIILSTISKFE
Experimental: as §1, §2, §3

## GAAGACAAAGAGGGUCGUGG / CCACGACCCUCUUUGUCUUC
CasRx (Cas13d); 293T-AQp1, 72 h
  activity (relative mRNA level): 0.05

## AGGGCAGAACCGAUGCUGAUGAAGAC / GUCUUCAUCAGCAUCGGUUCUGCCCU
CasRx (Cas13d); control 1.00
  activity (relative mRNA level): 0.03

## GUGGUUGGAGAACUGGAUGUAGAUGGGCUG / CAGCCCAUCUACAUCCAGUUCUCCAACCAC [PTBP1 gRNA CasRx (guide part only) ; PTBP1 mRNA site]
CasRx (Cas13d); 293T, 72 h, 0.59 in Table 10
  activity (relative mRNA level): 0.6

B1: PTBP1 gRNA Cas13m.2 ; PTBP1 mRNA site (ssRNA ; ssRNA)
RNA 1: GUGGUUGGAGAACUGGAUGUAGAUGGGCUGGUUGUAGAUGACCUCGUUUUGGAGGGGAAACACAAC
RNA 2: CAGCCCAUCUACAUCCAGUUCUCCAACCAC
Cas13m.2
  activity: 0.49 relative mRNA level

B2: PTBP1 gRNA Cas13m.3 ; PTBP1 mRNA site (ssRNA ; ssRNA)
RNA 1: GUGGUUGGAGAACUGGAUGUAGAUGGGCUGGUUGUAGAAGCCGUUCAUUCGGGACGGUAUGACAAC
RNA 2: B1 RNA 2
Cas13m.3
  activity: 0.46 relative mRNA level

B3: PTBP1 gRNA CasRfg.2 ; PTBP1 mRNA site (ssRNA ; ssRNA)
RNA 1: GGUUUUACACCCGUGUAAAACUACACAGUUCUAAAACGUGGUUGGAGAACUGGAUGUAGAUGGGCUG
RNA 2: B1 RNA 2
CasRfg.2 (Cas13d)
  activity: 0.78 relative mRNA level

B4: PTBP1 gRNA Cas13m.5 ; PTBP1 mRNA site (ssRNA ; ssRNA)
RNA 1: GUGGUUGGAGAACUGGAUGUAGAUGGGCUGGUUGUGUGUGCCUUUCAAAUUGAAGGCGUUCCCAAC
RNA 2: B1 RNA 2
Cas13m.5
  activity: 0.7 relative mRNA level

From US20240279630, “ISOLATED CAS13 PROTEIN AND USE THEREOF” (GUANGZHOU REFORGENE MEDICINE CO., LTD., published 2024)
